The values below come from patent publication US20150344570A1 (published 2015).

The labels stand for the following.
T1: human FcγRIIb extracellular domain with C-terminal His tag (human, UniProt P31994 43-217)
T1 construct: extracellular domain; also called FcgRIIb; 2b; not shown: His tag attached to the C terminus
T1 sequence (looked up): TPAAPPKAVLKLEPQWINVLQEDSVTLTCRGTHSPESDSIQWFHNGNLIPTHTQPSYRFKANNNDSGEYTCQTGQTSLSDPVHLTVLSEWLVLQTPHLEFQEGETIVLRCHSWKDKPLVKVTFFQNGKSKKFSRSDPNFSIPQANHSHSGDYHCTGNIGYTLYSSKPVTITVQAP

B1: GpH7-A5/GpH7-B3 variant P271_01G/GpL16-k0 (He Ab) (antibody, human IgG1, kappa)
heavy 1: not shown
heavy 2: not shown
light: DIVMTQSPLSLPVTPGEPASISCQASESLVHSNRNTYLHWYLQKPGQSPQLLIYKVSNRFSGVPDRFSGSGSGTDFTLKISRVEAEDVGVYYCSQNTHVPPTFGQGTKVEIERTVAAPSVFIFPPSDEQLKSGTASVVCLLNNFYPREAKVQWKVDNALQSGNSQESVTEQDSKDSTYSLSSTLTLSKADYEKHKVYACEVTHQGLSSPVTKSFNRGEC
notes: Anti-glypican-3 IgG1; mutation only in the GpH7-B3-derived H chain; also called P271G heterodimerized antibody
B2: GpH7-B3 variant S239_18N/GpL16-k0 (Ho Ab) (antibody, human IgG1, kappa)
heavy: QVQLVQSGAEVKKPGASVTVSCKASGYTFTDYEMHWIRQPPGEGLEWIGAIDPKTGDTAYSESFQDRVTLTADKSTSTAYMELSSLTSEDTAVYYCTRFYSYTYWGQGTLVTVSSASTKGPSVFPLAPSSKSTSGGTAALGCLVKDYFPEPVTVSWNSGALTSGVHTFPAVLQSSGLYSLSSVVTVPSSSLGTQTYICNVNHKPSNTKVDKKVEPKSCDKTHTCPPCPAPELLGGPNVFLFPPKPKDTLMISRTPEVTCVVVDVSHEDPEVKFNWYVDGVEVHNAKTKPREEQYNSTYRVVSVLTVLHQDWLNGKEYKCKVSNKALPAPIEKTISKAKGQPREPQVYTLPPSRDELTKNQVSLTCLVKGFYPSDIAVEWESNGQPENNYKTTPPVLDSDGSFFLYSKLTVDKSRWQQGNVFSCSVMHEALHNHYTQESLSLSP
light: B1 light
notes: Anti-glypican-3 IgG1; mutation in both H chains; also called S239N homodimerized antibody
B3: GpH7-A5/GpH7-B3 variant P238_08L/GpL16-k0 (He Ab) (antibody, human IgG1, kappa)
heavy 1: not shown
heavy 2: not shown
light: B1 light
notes: Anti-glypican-3 IgG1; mutation only in the GpH7-B3-derived H chain; also called P238L heterodimerized antibody
B4: GpH7-A5/GpH7-B3 variant S239_09D/GpL16-k0 (He Ab) (antibody, human IgG1, kappa)
heavy 1: not shown
heavy 2: not shown
light: B1 light
notes: Anti-glypican-3 IgG1; mutation only in the GpH7-B3-derived H chain; also called S239D heterodimerized antibody
B5: GpH7-A5/GpH7-B3 variant L328_06M/GpL16-k0 (He Ab) (antibody, human IgG1, kappa)
heavy 1: not shown
heavy 2: not shown
light: B1 light
notes: Anti-glypican-3 IgG1; mutation only in the GpH7-B3-derived H chain; also called L328M heterodimerized antibody
B6: GpH7-B3 variant S267_07I/GpL16-k0 (Ho Ab) (antibody, human IgG1, kappa)
heavy: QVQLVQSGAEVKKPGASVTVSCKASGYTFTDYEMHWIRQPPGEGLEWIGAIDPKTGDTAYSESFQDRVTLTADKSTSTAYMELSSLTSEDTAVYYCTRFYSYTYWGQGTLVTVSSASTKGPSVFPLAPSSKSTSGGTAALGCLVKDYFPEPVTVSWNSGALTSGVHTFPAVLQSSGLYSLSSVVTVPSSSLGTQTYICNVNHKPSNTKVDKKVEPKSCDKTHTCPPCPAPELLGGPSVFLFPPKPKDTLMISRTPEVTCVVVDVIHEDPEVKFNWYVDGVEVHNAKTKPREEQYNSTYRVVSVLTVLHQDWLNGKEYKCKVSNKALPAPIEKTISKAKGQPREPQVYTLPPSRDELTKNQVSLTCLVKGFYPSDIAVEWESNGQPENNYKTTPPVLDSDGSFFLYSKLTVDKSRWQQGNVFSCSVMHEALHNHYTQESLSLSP
light: B1 light
notes: Anti-glypican-3 IgG1; mutation in both H chains; also called S267I homodimerized antibody
B7: GpH7-B3 variant S239_07I/GpL16-k0 (Ho Ab) (antibody, human IgG1, kappa)
heavy: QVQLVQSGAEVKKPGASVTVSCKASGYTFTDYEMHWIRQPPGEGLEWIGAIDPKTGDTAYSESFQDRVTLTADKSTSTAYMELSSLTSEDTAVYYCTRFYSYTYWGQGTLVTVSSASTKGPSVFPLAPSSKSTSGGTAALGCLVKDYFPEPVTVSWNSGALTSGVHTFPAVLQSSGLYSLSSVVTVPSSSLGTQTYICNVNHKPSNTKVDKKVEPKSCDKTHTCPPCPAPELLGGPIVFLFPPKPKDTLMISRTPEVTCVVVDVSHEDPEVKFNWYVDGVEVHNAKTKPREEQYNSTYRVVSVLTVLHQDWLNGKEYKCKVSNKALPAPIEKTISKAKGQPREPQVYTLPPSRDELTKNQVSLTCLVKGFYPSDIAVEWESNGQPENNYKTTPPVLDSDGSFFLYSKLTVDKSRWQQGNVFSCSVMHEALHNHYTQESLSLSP
light: B1 light
notes: Anti-glypican-3 IgG1; mutation in both H chains; also called S239I homodimerized antibody
B8: GpH7-A5/GpH7-B3 variant P331_04F/GpL16-k0 (He Ab) (antibody, human IgG1, kappa)
heavy 1: not shown
heavy 2: not shown
light: B1 light
notes: Anti-glypican-3 IgG1; mutation only in the GpH7-B3-derived H chain; also called P331F heterodimerized antibody
B9: GpH7-A5/GpH7-B3 variant P271_08L/GpL16-k0 (He Ab) (antibody, human IgG1, kappa)
heavy 1: not shown
heavy 2: not shown
light: B1 light
notes: Anti-glypican-3 IgG1; mutation only in the GpH7-B3-derived H chain; also called P271L heterodimerized antibody
B10: GpH7-B3 variant Y300_19Q/GpL16-k0 (Ho Ab) (antibody, human IgG1, kappa)
heavy: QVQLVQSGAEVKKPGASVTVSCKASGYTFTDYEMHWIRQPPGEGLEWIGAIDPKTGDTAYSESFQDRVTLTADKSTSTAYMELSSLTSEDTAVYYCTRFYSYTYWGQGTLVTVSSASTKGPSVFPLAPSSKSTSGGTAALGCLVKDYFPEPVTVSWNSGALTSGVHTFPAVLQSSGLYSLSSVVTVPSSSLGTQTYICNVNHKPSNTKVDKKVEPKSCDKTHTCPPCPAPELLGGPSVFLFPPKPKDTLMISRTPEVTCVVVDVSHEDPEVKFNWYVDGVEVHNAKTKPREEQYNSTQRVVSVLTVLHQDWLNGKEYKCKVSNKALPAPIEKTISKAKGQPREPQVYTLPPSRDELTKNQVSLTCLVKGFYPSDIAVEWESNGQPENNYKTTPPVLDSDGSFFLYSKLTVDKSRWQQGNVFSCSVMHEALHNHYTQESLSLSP
light: B1 light
notes: Anti-glypican-3 IgG1; mutation in both H chains; also called Y300Q homodimerized antibody
B11: GpH7-B3 variant S337_14T/GpL16-k0 (Ho Ab) (antibody, human IgG1, kappa)
heavy: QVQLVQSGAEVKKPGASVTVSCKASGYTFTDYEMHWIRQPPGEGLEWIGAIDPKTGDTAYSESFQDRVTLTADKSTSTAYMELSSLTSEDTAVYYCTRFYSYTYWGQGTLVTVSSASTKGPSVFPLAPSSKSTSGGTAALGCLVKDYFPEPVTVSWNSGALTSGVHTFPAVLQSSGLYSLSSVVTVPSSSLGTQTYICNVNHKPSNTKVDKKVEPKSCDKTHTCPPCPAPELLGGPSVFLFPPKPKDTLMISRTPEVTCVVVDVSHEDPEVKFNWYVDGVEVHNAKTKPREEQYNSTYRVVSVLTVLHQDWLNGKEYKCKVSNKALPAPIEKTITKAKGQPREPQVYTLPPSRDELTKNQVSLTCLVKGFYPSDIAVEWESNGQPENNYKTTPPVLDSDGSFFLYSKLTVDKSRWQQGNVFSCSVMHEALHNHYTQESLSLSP
light: B1 light
notes: Anti-glypican-3 IgG1; mutation in both H chains; also called S337T homodimerized antibody
B12: GpH7-A5/GpH7-B3 variant S239_08L/GpL16-k0 (He Ab) (antibody, human IgG1, kappa)
heavy 1: not shown
heavy 2: not shown
light: B1 light
notes: Anti-glypican-3 IgG1; mutation only in the GpH7-B3-derived H chain; also called S239L heterodimerized antibody
B13: GpH7-B3 variant T335_09D/GpL16-k0 (Ho Ab) (antibody, human IgG1, kappa)
heavy: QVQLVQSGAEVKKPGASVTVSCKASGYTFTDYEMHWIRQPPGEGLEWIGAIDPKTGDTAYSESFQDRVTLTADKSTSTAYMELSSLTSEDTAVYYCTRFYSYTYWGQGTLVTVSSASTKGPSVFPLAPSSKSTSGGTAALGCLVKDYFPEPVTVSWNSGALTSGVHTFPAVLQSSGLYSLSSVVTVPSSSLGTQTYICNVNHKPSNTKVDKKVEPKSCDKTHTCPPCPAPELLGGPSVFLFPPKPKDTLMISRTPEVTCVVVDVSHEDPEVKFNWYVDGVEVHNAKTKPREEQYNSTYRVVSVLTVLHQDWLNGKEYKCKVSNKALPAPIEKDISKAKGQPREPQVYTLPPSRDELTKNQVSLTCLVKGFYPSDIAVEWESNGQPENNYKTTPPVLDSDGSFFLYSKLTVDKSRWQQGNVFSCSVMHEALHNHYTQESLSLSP
light: B1 light
notes: Anti-glypican-3 IgG1; mutation in both H chains; also called T335D homodimerized antibody
B14: GpH7-A5/GpH7-B3 variant L328_19Q/GpL16-k0 (He Ab) (antibody, human IgG1, kappa)
heavy 1: not shown
heavy 2: not shown
light: B1 light
notes: Anti-glypican-3 IgG1; mutation only in the GpH7-B3-derived H chain; also called L328Q heterodimerized antibody
B15: GpH7-A5/GpH7-B3 variant S239_01G/GpL16-k0 (He Ab) (antibody, human IgG1, kappa)
heavy 1: not shown
heavy 2: not shown
light: B1 light
notes: Anti-glypican-3 IgG1; mutation only in the GpH7-B3-derived H chain; also called S239G heterodimerized antibody
B16: GpH7-B3 variant S267_02A/GpL16-k0 (Ho Ab) (antibody, human IgG1, kappa)
heavy: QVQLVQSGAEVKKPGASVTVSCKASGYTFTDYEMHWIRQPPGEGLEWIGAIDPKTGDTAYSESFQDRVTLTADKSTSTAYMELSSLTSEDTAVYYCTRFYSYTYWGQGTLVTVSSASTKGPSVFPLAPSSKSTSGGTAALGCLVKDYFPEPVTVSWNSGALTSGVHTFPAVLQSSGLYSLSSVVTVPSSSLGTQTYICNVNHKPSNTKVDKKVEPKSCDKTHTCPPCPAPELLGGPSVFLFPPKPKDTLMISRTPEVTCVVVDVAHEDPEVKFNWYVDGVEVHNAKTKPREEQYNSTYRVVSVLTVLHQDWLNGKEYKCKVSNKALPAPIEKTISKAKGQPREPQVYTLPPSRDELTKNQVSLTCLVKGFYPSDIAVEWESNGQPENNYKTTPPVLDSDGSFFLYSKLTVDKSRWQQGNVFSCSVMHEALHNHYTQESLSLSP
light: B1 light
notes: Anti-glypican-3 IgG1; mutation in both H chains; also called S267A homodimerized antibody
B17: GpH7-A5/GpH7-B3 variant S239_18N/GpL16-k0 (He Ab) (antibody, human IgG1, kappa)
heavy 1: not shown
heavy 2: not shown
light: B1 light
notes: Anti-glypican-3 IgG1; mutation only in the GpH7-B3-derived H chain; also called S239N heterodimerized antibody
B18: GpH7-B3 variant S298_08L/GpL16-k0 (Ho Ab) (antibody, human IgG1, kappa)
heavy: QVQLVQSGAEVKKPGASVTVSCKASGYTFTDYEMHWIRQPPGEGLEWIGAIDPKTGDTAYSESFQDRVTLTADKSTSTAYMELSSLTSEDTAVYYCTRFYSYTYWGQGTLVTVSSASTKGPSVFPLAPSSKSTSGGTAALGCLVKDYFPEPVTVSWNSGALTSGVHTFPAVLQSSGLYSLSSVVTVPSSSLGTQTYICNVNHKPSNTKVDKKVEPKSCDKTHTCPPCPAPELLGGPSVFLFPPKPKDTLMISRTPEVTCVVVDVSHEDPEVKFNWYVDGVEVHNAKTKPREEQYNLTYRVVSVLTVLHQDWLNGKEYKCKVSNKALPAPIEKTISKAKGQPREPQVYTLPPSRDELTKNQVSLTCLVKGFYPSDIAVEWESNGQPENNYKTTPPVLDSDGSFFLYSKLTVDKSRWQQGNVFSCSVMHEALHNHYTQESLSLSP
light: B1 light
notes: Anti-glypican-3 IgG1; mutation in both H chains; also called S298L homodimerized antibody
B19: GpH7-A5/GpH7-B3 variant L328_15Y/GpL16-k0 (He Ab) (antibody, human IgG1, kappa)
heavy 1: not shown
heavy 2: not shown
light: B1 light
notes: Anti-glypican-3 IgG1; mutation only in the GpH7-B3-derived H chain; also called L328Y heterodimerized antibody
B20: GpH7-A5/GpH7-B3 variant S239_07I/GpL16-k0 (He Ab) (antibody, human IgG1, kappa)
heavy 1: not shown
heavy 2: not shown
light: B1 light
notes: Anti-glypican-3 IgG1; mutation only in the GpH7-B3-derived H chain; also called S239I heterodimerized antibody
B21: GpH7-A5/GpH7-B3 variant L328_04F/GpL16-k0 (He Ab) (antibody, human IgG1, kappa)
heavy 1: not shown
heavy 2: not shown
light: B1 light
notes: Anti-glypican-3 IgG1; mutation only in the GpH7-B3-derived H chain; also called L328F heterodimerized antibody
B22: GpH7-B3 variant S239_08L/GpL16-k0 (Ho Ab) (antibody, human IgG1, kappa)
heavy: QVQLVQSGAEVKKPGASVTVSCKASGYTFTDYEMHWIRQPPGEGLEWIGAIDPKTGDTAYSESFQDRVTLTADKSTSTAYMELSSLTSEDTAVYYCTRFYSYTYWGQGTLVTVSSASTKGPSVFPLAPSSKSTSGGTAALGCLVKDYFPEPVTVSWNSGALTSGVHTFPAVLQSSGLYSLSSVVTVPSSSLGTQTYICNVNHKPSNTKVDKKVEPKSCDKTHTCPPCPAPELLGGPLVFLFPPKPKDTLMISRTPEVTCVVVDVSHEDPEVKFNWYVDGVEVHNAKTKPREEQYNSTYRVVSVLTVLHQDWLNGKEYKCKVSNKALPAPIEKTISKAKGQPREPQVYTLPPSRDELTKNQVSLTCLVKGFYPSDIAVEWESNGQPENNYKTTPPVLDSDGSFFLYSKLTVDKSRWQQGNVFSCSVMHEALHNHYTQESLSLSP
light: B1 light
notes: Anti-glypican-3 IgG1; mutation in both H chains; also called S239L homodimerized antibody
B23: GpH7-A5/GpH7-B3 variant L328_14T/GpL16-k0 (He Ab) (antibody, human IgG1, kappa)
heavy 1: not shown
heavy 2: not shown
light: B1 light
notes: Anti-glypican-3 IgG1; mutation only in the GpH7-B3-derived H chain; also called L328T heterodimerized antibody
B24: GpH7-A5/GpH7-B3 variant K334_19Q/GpL16-k0 (He Ab) (antibody, human IgG1, kappa)
heavy 1: not shown
heavy 2: not shown
light: B1 light
notes: Anti-glypican-3 IgG1; mutation only in the GpH7-B3-derived H chain; also called K334Q heterodimerized antibody
B25: GpH7-B3 variant S239_09D/GpL16-k0 (Ho Ab) (antibody, human IgG1, kappa)
heavy: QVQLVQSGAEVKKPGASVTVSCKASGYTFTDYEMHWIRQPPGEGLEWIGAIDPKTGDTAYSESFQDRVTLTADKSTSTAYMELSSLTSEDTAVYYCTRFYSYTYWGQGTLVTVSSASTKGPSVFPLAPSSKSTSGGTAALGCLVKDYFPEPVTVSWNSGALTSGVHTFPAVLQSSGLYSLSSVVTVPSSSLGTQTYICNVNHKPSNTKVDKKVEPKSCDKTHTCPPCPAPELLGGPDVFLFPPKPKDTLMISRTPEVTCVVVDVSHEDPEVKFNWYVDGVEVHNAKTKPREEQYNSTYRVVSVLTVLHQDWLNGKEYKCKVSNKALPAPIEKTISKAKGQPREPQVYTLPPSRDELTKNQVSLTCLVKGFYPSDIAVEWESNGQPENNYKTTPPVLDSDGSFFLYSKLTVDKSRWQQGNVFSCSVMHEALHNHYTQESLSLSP
light: B1 light
notes: Anti-glypican-3 IgG1; mutation in both H chains; also called S239D homodimerized antibody
B26: GpH7-B3 variant S337_09D/GpL16-k0 (Ho Ab) (antibody, human IgG1, kappa)
heavy: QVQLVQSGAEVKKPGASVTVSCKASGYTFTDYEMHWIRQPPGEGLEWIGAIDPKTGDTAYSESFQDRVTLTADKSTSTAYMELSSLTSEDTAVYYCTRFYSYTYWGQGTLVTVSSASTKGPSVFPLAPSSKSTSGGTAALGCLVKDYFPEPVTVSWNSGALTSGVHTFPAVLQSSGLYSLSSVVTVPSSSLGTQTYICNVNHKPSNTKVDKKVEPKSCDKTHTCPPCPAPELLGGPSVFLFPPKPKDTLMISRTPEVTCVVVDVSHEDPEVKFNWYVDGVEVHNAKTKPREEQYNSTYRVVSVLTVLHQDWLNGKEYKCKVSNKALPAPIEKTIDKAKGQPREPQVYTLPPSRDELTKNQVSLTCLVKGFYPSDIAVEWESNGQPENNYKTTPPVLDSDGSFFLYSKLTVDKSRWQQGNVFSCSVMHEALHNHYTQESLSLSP
light: B1 light
notes: Anti-glypican-3 IgG1; mutation in both H chains; also called S337D homodimerized antibody

This assay concerns the target T1, human FcγRIIb extracellular domain with …. Kind of assay: SPR (Biacore T100), antibody captured on antigen peptide chip, FcγRIIb as analyte; relative binding. On the procedure:
Analysis of interaction between objective antibody and the FcγR was carried out using Biacore T100 (GE Healthcare). HBS-EP+ (GE Healthcare) was used as the running buffer, and the measurement temperature was set to 25° C. Chips produced by immobilizing the antigen peptide by the amine coupling method to a Series S Sencor Chip CM5 (GE Healthcare), or alternatively, chips produced by allowing preliminarily biotinylated antigen peptides to interact with and immobilize onto a Series S Sensor Chip SA (certified) (GE Healthcare) were used. Antibodies of interest were captured onto an antigen peptide-immobilized chip, and allowed to interact to each FcγR diluted with running buffer. To regenerate and repeatedly use the chip, the antibodies captured on the chip were washed off by reacting 10 mM glycine-HCl, pH 1.5.
For B1, the He/Con_2b was 193 % of control GpH7-A5/GpH7-B3/GpL16-k0 (=100). On to B2, for which the Ho/Con_2b is 125 % of control GpH7-B3/GpL16-k0 (=100). Turning to B3, the He/Con_2b was 204 % of control GpH7-A5/GpH7-B3/GpL16-k0 (=100). Same read-out and setting: as for B4, the figure is 206 % of control GpH7-A5/GpH7-B3/GpL16-k0 (=100); as for B5, 142 % of control GpH7-A5/GpH7-B3/GpL16-k0 (=100). Consider B6, for which the Ho/Con_2b is 213 % of control GpH7-B3/GpL16-k0 (=100). On the same count and under the same terms, as for B7, the figure is 108 % of control GpH7-B3/GpL16-k0 (=100). B8: the He/Con_2b is 110 % of control GpH7-A5/GpH7-B3/GpL16-k0 (=100). The same measure, in the same setting: the same measure for B9: 103 % of control GpH7-A5/GpH7-B3/GpL16-k0 (=100). For the molecule B10, the Ho/Con_2b is 124 % of control GpH7-B3/GpL16-k0 (=100). On the same count and under the same terms, as for B11, the figure is 110 % of control GpH7-B3/GpL16-k0 (=100).

Consider B12, for which the He/Con_2b was 140 % of control GpH7-A5/GpH7-B3/GpL16-k0 (=100). As to B13, the Ho/Con_2b was 116 % of control GpH7-B3/GpL16-k0 (=100).

Take B14: the He/Con_2b is 105 % of control GpH7-A5/GpH7-B3/GpL16-k0 (=100). On the same count and under the same terms, as for B15, the figure is 144 % of control GpH7-A5/GpH7-B3/GpL16-k0 (=100).

For the molecule B16, the Ho/Con_2b is 274 % of control GpH7-B3/GpL16-k0 (=100).

With B17, the He/Con_2b is 119 % of control GpH7-A5/GpH7-B3/GpL16-k0 (=100). B18: the Ho/Con_2b was 115 % of control GpH7-B3/GpL16-k0 (=100). With B19, the He/Con_2b is 193 % of control GpH7-A5/GpH7-B3/GpL16-k0 (=100). Regarding B20, the He/Con_2b was 107 % of control GpH7-A5/GpH7-B3/GpL16-k0 (=100). Still for that read-out and setting: as for B21, the figure is 219 % of control GpH7-A5/GpH7-B3/GpL16-k0 (=100). With B22, the Ho/Con_2b was 142 % of control GpH7-B3/GpL16-k0 (=100). Take B23: the He/Con_2b was 141 % of control GpH7-A5/GpH7-B3/GpL16-k0 (=100).

As for B24, the He/Con_2b is 109 % of control GpH7-A5/GpH7-B3/GpL16-k0 (=100). Turning to B25, the Ho/Con_2b is 224 % of control GpH7-B3/GpL16-k0 (=100). On to B26, for which the Ho/Con_2b was 116 % of control GpH7-B3/GpL16-k0 (=100).
